System: 20S proteasome (h20S)
Test: Microscale thermophoresis (MST) protein-proteasome interaction
Type: binding, human
Conditions: NT-647-labeled protein titrated with h20S 0.06-1965 nM; 22 °C; 20 mM Tris-HCl pH 7.2; three independent experiments; read-out: EC50 of binding to 20S proteasome (MST, Hill fit)
Description: Enolase, α-synuclein and their oxidized forms were labeled using Monolith Protein Labeling Kit RED-NHS 2nd Generation Amine Reactive, NT-647 (Nanotemper, München, Germany), according to the manufacturer instructions. The labeling process was carried out in 50 mM HEPES buffer, pH 7.4, in the protein:NT-647 1:2 ratio. The incubation time was 60 min for enolase and 30 min for α-synuclein, at 21 °C. After labeling, the excess of the fluorescent reagent was removed using the columns provided by the manufacturer and 20 mM Tris-HCl buffer, pH 7.2, containing 200 mM NaCl and 10% glycerol. The obtained labeled proteins were concentrated on Amicon 3K spin-columns (Merck, Darmstadt, Germany). Protein concentrations were determined by measuring absorbance at 280 nm, using UV/Vis spectrophotometer (DU®730 Beckman Coulter).
Direct interactions between the fluorescently labeled, native and oxidized, proteins and the 20S proteasome were examined using microscale thermophoresis (NanoTemper Monolith NT.115). The labeled protein concentration was kept constant at 250 nM for native and oxidized α-synuclein and 125 nM and 25 nM for native and oxidized enolase, respectively. […] The EC50 values were calculated based on results obtained in three independent experiments.

EC50: 87.8 ± 12.9 nM
B1: oxidized enolase: human enolase 2 incubated with 0.5% H2O2 for 2 h at 30 °C (protein, UniProt P09104 2-434, looked up)
Gamma-enolase: SIEKIWAREILDSRGNPTVEVDLYTAKGLFRAAVPSGASTGIYEALELRDGDKQRYLGKGVLKAVDHINSTIAPALISSGLSVVEQEKLDNLMLELDGTENKSKFGANAILGVSLAVCKAGAAERELPLYRHIAQLAGNSDLILPVPAFNVINGGSHAGNKLAMQEFMILPVGAESFRDAMRLGAEVYHTLKGVIKDKYGKDATNVGDEGGFAPNILENSEALELVKEAIDKAGYTEKIVIGMDVAASEFYRDGKYDLDFKSPTDPSRYITGDQLGALYQDFVRDYPVVSIEDPFDQDDWAAWSKFTANVGIQIVGDDLTVTNPKRIERAVEEKACNCLLLKVNQIGSVTEAIQACKLAQENGWGVMVSHRSGETEDTFIADLVVGLCTGQIKTGAPCRSERLAKYNQLMRIEEELGDEARFAGHNFRNPSVL
modifications: H2O2-oxidized
notes: human enolase 2 incubated with 0.5% H2O2 for 2 h at 30 °C

From paper PMC9221443, “Peptidomimetics Based on C-Terminus of Blm10 Stimulate Human 20S Proteasome Activity and Promote Degradation of Proteins” (Biomolecules, 2022)
